# Measurements taken from patent US20100021477A1 (Janssen / Centocor, published 2010).
# Changes are numbered by the printed parent chain.
# B1: Fab F4 (Fab, V domains shown)
# VH: QVQLVQSGAEVKKPGSSVKVSCKASGGTFSSYGISWVRQAPGQGLEWMGGIIPIFGTANYAQKFQGRVTITADESTSTAYMELSSLRSEDTAVYYCARDFGVYTWLGQTFDYWGQGTLVTVSS
# VL: not shown
# notes: also called F4 (Hc/Lc)
# B2: Fab D6 (Fab, V domains shown)
# VH: QVQLVQSGAEVKKPGSSVKVSCKASGGTFSSYAISWVRQAPGQGLEWMGGIIPIFGTANYAQKFQGRVTITADESTSTAYMELSSLRSEDTAVYYCARGIIGINLVVLDYWGQGTLVTVSS
# VL: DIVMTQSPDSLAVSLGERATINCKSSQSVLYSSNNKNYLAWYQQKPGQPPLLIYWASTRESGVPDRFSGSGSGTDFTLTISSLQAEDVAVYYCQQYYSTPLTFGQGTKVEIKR
# notes: also called D6 (Hc/Lc)
# B3: Fab F6 (Fab, V domains shown)
# VH: B2 VH with I103T, N104I, L105T, V106Y, L108F
# VL: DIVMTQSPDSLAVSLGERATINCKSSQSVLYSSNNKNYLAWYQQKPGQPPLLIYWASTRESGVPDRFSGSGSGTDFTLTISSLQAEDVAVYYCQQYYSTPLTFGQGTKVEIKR
# notes: also called F6 (Hc/Lc)
# B4: Fab C2 (Fab, V domains shown)
# VH: QVQLVQSGAEVKKPGSSVKVSCKASGGTFSSYAISWVRQAPGQGLEWMGGIIPINGNANYAQKFQGRVTITADESTSTAYMELSSLRSEDTAVYYCARRAGMRVQTYYFFDYWGQGTLVTVSS
# VL: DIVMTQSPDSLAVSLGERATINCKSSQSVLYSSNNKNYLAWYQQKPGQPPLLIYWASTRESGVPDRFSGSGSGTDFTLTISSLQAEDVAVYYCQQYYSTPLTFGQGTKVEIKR
# notes: also called C2 (Hc/Lc)
# B5: Fab E7 (Fab, V domains shown)
# VH: QVQLVQSGAEVKKPGSSVKVSCKASGGTFSSYAISWVRQAPGQGLEWMGGIIPIFGTANYAQKFQGRVTITADESTSTAYMELSSLRSEDTAVYYCAREGGEVYDWEYYLDYWGQGTLVTVSS
# VL: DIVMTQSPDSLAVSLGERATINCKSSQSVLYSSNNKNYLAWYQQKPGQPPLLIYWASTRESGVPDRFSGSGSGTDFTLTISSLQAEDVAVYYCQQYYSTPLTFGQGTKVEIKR
# notes: also called E7 (Hc/Lc)
# B6: Fab E5 (Fab, V domains shown)
# VH: QVQLVQSGAEVKKPGSSVKVSCKASGGTFSSYAISWVRQAPGQGLEWMGWIIPYNGNANYAQKFQGRVTITADESTSTAYMELSSLRSEDTAVYYCARHTPVRDLDYWGQGTLVTVSS
# VL: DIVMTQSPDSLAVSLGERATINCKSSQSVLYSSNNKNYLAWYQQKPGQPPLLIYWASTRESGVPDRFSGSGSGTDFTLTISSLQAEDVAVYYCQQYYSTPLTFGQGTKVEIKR
# notes: also called E5 (Hc/Lc)
# B7: Fab C6 (Fab, V domains shown)
# VH: QVQLVQSGAEVKKPGSSVKVSCKASGGTFSSYGISWVRQAPGQGLEWMGGIIPIFGTANYAQKFQGRVTITADESTSTAYMELSSLRSEDTAVYYCARLCVSPAWDQCFDYWGQGTLVTVSS
# VL: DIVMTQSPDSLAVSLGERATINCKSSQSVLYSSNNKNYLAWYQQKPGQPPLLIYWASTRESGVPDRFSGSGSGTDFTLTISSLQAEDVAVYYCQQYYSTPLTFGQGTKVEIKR
# notes: also called C6 (Hc/Lc)
# B8: Fab D11 (Fab, V domains shown)
# VH: QVQLVQSGAEVKKPGSSVKVSCKASGGTFSSYAISWVRQAPGQGLEWMGGIIPIFGTANYAQKFQGRVTITADESTSTAYMELSSLRSEDTAVYYCARIRWGGWFRGYLDYWGQGTLVTVSS
# VL: not shown
# notes: also called D11(Hc/Lc)
# Biological target: T1, Bovine Serum Albumin (BSA) (bovine, UniProt P02769 25-607)
# Assay: BIAcore, BSA on the chip (40 RU), purified Fab
# T1 sequence (P02769 25-607 limits assumed): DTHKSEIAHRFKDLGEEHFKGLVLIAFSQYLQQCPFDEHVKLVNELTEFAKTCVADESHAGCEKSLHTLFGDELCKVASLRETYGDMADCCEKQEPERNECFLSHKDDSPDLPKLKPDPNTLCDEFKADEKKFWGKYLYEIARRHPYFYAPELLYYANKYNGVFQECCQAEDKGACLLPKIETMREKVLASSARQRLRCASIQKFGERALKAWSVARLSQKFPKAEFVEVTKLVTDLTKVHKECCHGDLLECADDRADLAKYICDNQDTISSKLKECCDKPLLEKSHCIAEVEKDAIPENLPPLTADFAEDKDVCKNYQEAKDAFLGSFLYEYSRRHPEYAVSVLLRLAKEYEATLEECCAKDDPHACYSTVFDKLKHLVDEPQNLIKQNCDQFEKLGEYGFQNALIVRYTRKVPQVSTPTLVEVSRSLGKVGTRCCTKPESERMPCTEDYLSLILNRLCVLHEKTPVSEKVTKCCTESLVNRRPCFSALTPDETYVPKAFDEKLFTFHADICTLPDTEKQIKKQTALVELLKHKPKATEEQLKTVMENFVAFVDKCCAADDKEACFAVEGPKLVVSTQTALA
Binder,koff,kon
B1,0.00048 s⁻¹,51000 M⁻¹ s⁻¹
B2,0.00195 s⁻¹,572000 M⁻¹ s⁻¹
B3,0.0113 s⁻¹,430000 M⁻¹ s⁻¹
B4,0.00169 s⁻¹,60000 M⁻¹ s⁻¹

# Biological target: T1, Bovine Serum Albumin (BSA)
# Assay: BIAcore
row,Binder,binding result
1,B5,no binding
2,B6,no binding

# Biological target: T2, Hen-Egg White Lysozyme (HEL) (hen, UniProt P00698 19-147)
# Assay: BIAcore
# T2 sequence (P00698 19-147 limits assumed): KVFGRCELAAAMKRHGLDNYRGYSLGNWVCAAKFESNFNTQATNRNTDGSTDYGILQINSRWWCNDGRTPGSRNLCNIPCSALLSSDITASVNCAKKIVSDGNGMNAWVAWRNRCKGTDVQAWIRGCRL
row,Binder,binding result
1,B1,no binding
2,B7,no binding
3,B8,no binding
4,B2,no binding
5,B3,no binding
6,B4,no binding

# Biological target: T2, Hen-Egg White Lysozyme (HEL)
# Assay: BIAcore, lysozyme on the chip (10 RU), purified Fab
Binder,koff,kon
B5,0.12 s⁻¹,460000 M⁻¹ s⁻¹
B6,0.00233 s⁻¹,227000 M⁻¹ s⁻¹

# Biological target: T1, Bovine Serum Albumin (BSA)
# Assay: BIAcore, BSA on the chip (40 RU)
row,Binder,binding result
1,B7,no binding

# Biological target: T1, Bovine Serum Albumin (BSA)
# Assay: BIAcore, BSA on the chip (40 RU), purified Fab; apparent KD
row,Binder,Kd
1,B1,0.009 µM
2,B2,0.004 µM
3,B3,0.026 µM
4,B4,0.028 µM

# Biological target: T2, Hen-Egg White Lysozyme (HEL)
# Assay: BIAcore, lysozyme on the chip (10 RU), purified Fab; apparent KD
row,Binder,Kd
1,B5,0.26 µM
2,B6,0.01 µM
